PMC4766014, “Structures of Two Melanoma-Associated Antigens Suggest Allosteric Regulation of Effector Binding” (PLoS ONE, 2016)

B1: MAGE-A3 C-terminally truncated construct, residues 104-294 (domain or fragment, human, UniProt P43357 104-294, looked up)
chain: EFQAALSRKVAELVHFLLLKYRAREPVTKAEMLGSVVGNWQYFFPVIFSKASSSLQLVFGIELMEVDPIGHLYIFATCLGLSYDGLLGDNQIMPKAGLLIIVLAIIAREGDCAPEEKIWEELSVLEVFEGREDSILGDPKKLLTQHFVQENYLEYRQVPGSDPACYEFLWGPRALVETSYVKVLHHMVKIS
notes: MAGE-A3, human, residues 104-294 (lacks the final 20 residues of the crystallized construct); also called MAGE-A3^104-294
B2: MAGE-A3 MHD domain, residues 104-314 (domain or fragment, human, UniProt P43357 104-314, looked up)
chain: EFQAALSRKVAELVHFLLLKYRAREPVTKAEMLGSVVGNWQYFFPVIFSKASSSLQLVFGIELMEVDPIGHLYIFATCLGLSYDGLLGDNQIMPKAGLLIIVLAIIAREGDCAPEEKIWEELSVLEVFEGREDSILGDPKKLLTQHFVQENYLEYRQVPGSDPACYEFLWGPRALVETSYVKVLHHMVKISGGPHISYPPLHEWVLREGEE
notes: MAGE-A3, human, MAGE homology domain (MHD), residues 104-314; Dimer in solution by AUC and SAXS (dimer B interface); The final 4 residues are disordered in the crystal structure; also called MAGE-A3^104-314; melanoma associated antigen A3

Target: the molecule itself
Experiment: AUC; sedimentation velocity, 4°C, 45,000 rpm, 10 mM HEPES pH 7.5, 150 mM NaCl, 0.5 mM TCEP; MAGE-A3 at 0.75 mg/ml, MAGE-A4 at 0.5 mg/ml; c(s) analysis with SEDFIT

Protein	stoichiometry N
B1	2
B2	2
